Assay results from patent US8841272B2, “Double-stranded RNA-based nanoparticles for insect gene silencing” (Kansas State University Research Foundation, priority 2011, dated 2014).

Key:
AgCHS1 = assay: qPCR of AgCHS1 transcript level in mosquito larvae after larval feeding; format: in vivo, Anopheles gambiae; conditions: 3rd-instar larvae fed once a day for 4 days on dsRNA nanoparticles, vs GFP dsRNA nanoparticles
Protocol: (§1) A group of 15-20 3rd-instar mosquito larvae was transferred into a 500-ml glass beaker containing 100 ml of deionized water. One sixth of the gel slices that were prepared from 32 μg of dsRNA, as described above, were added into each beaker. Approximately an equal amount of the gel slices was used to feed the larvae once a day for a total of four days. Any potential phenotypic changes were visually examined in the larvae during the experiment. The transcript levels of AgCHS1 or AgCHS2, chitin contents, and other phenotypic changes were assessed in the larvae at the end of the experiment (i.e., day 4).
(§2) Total RNA was extracted from mosquito larvae with TRIzol reagent (Invitrogen, Carlsbad, Calif.) and 3.5 μg of total RNA was used for first strand cDNA synthesis using the First Strand cDNA Synthesis kit (Fermentas, Glen Burnie, Md.). The first strand cDNA was then used as template for PCR and qPCR. A gene encoding ribosomal protein S3, AgRPS3, was used as an internal reference. PCR was performed with a PCR Master Mix kit (Fermentas). The qPCR was performed using a Maxima SYBR Green qPCR Master Mix (Fermentas), and the 2^−ΔΔCT method was used to calculate the relative levels of AgCHS1 and AgCHS2 transcripts in the mosquito larvae fed on the food containing the AgCHS1 or AgCHS2 dsRNA-based nanoparticles as compared with the control larvae fed on the food containing the GFP dsRNA-based nanoparticles.
(§3) For data obtained from qPCR, relative expression levels in percentage were calculated by dividing the relative expression value (REV) of each gene in the AgCHS dsRNA-treated larvae by the REV of the same gene in the GFP dsRNA-treated larvae. After the percentage data of the relative AgCHS expression were transformed using arcsine square root transformation, the transformed data were subjected to ANOVA followed by Fisher's least significant difference (LSD) multiple comparisons to separate the means among the treatments using ProStat software (Poly Software International, Pearl River, N.Y.).

AgCHS2 = assay: qPCR of AgCHS2 transcript level in mosquito larvae after larval feeding; format: in vivo, Anopheles gambiae; conditions: 3rd-instar larvae fed once a day for 4 days on dsRNA nanoparticles, vs GFP dsRNA nanoparticles
Protocol: as §1, §2, §3

Molecule	repression of the transcript level of AgCHS1 (AgCHS1)	repression of the transcript level of AgCHS2 (AgCHS2) [%]
dsAgCHS1-f1: dsRNA synthesized using residues 2,267 to 2,635 of SEQ ID NO: 1 as the template (nucleic acid, listed as Anopheles gambiae, double-stranded RNA) DNA: TGAAACGCACATCTTCTTCGATGACGCGTTCGAAATTTCGGACCACAGCGACGAGGACATTCAGTGTAATCGGTTCGTGAAGATTCTTGTCGACACCATCGACGAAGCTGCCTCGGAAGTGCATCAGACCAACATTCGATTGAGACCGCCCAAAAAGTACCCAACACCGTACGGTGGACGACTGGTGTGGACGCTGCCCGGTAAAACGAAGATGATTGCCCACCTGAAGGACAAGGATCGCATCCGGCACCGTAAGCGTTGGTCTCAGGTCATGTACATGTACTATCTGCTCGGCCACCGGCTGATGGAGCTGCCGATTTCCGTCGACCGTAAGGAGGTGATGGCGGAAAACACCTACCTGCTGACGCT	62.8%	48.4
dsAgCHS1-f2: dsRNA synthesized using residues 3,812 to 4,202 of SEQ ID NO: 1 as the template (nucleic acid, listed as Anopheles gambiae, double-stranded RNA) DNA: CAAAACGACGGACGAGAAGGCGCAGCTGATTCACATTGCCGATGCGCTGGACGCCATTACGAAGAAGATTGAGAATCTGGAAAAGCACATCGACCCGCACGGACATCATACGCGCAAGCGCACTGCGTCGGCGGGGTCGAAGGATCACCATCTCGGCTCGGTGGCGGAGGATACGGAGGACGATGATGAGGATGAAGATTCGGAGACTTCGACGCTGCAGCGCGACGAGCGCGACTTCCTCACCAACCCGTACTGGATCGAGGATCCGGATCTGAAGAAGGGCGAGGTGGACTTTATTTCCAGCACCGAGATCCAGTTCTGGAAGGACCTGATCGATAAGTACCTATACCCGATCGATCAAAACAAGGAGGAACAGGCACGTATTGCGCAC	52.4%	57.9
dsAgCHS2-f1: dsRNA synthesized using residues 3,846 to 4,235 of SEQ ID NO: 3 as the template (nucleic acid, listed as Anopheles gambiae, double-stranded RNA) DNA: ACACATCGAGTGGTGGTTCAACGTGAAGAACAAGATCAGCTTTGACGAAAGCACGGTCGAGATCATGATCCGGCGCGAGTACCTGGAGCTCGAACCGATCGGTTTGGTGTTTGTGATGTTCTTCGGTTTGATTCTCATCATTCAGTTTGTGGCCATGCTGATGCATCGGTTCGGTACCATCTCCCAGATTCTTGCCTCCACCGAGCTGAACTGGTACTGTTCGAAGAAGGCTAAGGATATGTCACTCGATGCGGAACTGCGCGAGAATGCGGTCGAAATTGCACGTCGACTGCAGCGCCCCAAACCGCAGTGGGACGAGGAAGATCTAGAGGACGAGCAGAAAGCTATTGGACGTCGCGACACGATCCATCGCATTCTCTACCAGCACAA	none of these AgCHS2 dsRNAs repressed	63.4
dsAgCHS2-f2: dsRNA synthesized using residues 3,331 to 3,719 of SEQ ID NO: 3 as the template (nucleic acid, listed as Anopheles gambiae, double-stranded RNA) DNA: GCCAGCGCCGAAAAGGAGCAAATCGCACAAATTGCGGCATCGCTCAGCGAAATAAGTGTAAAAATGAAGGCACTGGAAATGAAATTAACCGGCAACGTCAGCGTAATGAGATCAGACGACGAAGATGATGACATCGGTAGTCTCGATATGCATCGTCCGGAAGGTAACCGTGGCCCATCCTCGCCATCCTCCACCTCGGGCGCCGCCTCCCCGATCCAGACGGTGAAAAATGATTCCCTCGAAGAGCCCGAGAAGCAGATTAACTATCTGCCGGATTGGTTGTACGACGTGGATTTGAAAAACGGCGACACTGAGACGATCTCCGCCTCGGAGGAGCAATTCTGGATTGAGCTGATCGAGAAGTATCTGAAGCCGCTCGATCTGTCGGA	none of these AgCHS2 dsRNAs repressed	48.8
